This note sets out measurements from the nanobody polyreactivity screen of Harvey et al. (2022).

The nature of the data set: yeast display, Sf9 membrane polyspecificity reagent, FACS + sequencing; frameworks hold sequencing errors. The method in brief:
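Polyreactivity labels are assigned by the sorting gate from which each nanobody was recovered. The gates were low and high (top ~1%), set on anti-HA fluorescence for expression and streptavidin fluorescence for reagent binding. Before sorting, galactose-induced (36–48 hours) yeast display cells were stained for 1 hour at 4 °C with 10% biotinylated, detergent-solubilized Sf9 membrane reagent.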
Regarding “QVHLVESGGRLVQAGGSLRLSCAASGRTVVDNAMGWYRQAPGKESQLVAAISSGGTTNFADSVKGRFTISRDIAKNTVYLQMNSLKPEDTAVFYCNTVATYLRSGYGNWGQGTQVTVSS”, the “polyreactivity (PSR sort gate)” value is listed as “low polyreactivity”.

“QVQLVESGGGLVQAGGSLRLSCAASGFTFDLYAMGWSRQAPGKERELVASISSGGITYYADSVKGRFTITRDNANNTVYLQMNSLKPEDTAVYYCARDWRYGSWEGDDYWGQGTQVTVSS”: the “polyreactivity (PSR sort gate)” value is “low polyreactivity”.

“QVQLVESGGGLVQAGGSLRLSCAASGSISYRYAMGWYRQAPGKERELVAAISYRGGTTYYADSVKGRFTISRDNAKNTVYLQMNSLKPEDTAVYYCADDFFGSSYPFYYWGQGTQVTVSS”: the “polyreactivity (PSR sort gate)” value is on record as “high polyreactivity”.

Take “QVQLVESGGGLVQAGGSLRLSCAASGRIFYGYTMGWARQAPGKERQLVAAITWSGGSTYYADSVKGRFTISRDNAKYSVYLQMNSLKPKDTAVYYCAATLGNAADYDYGYWGQGTQVTVSS”: the “polyreactivity (PSR sort gate)” value is reported as “high polyreactivity”.

As to “QVQLVESVGGLVQAGGSLRLSCAASGRTFYYYTMGWYRQAPGKEWELVAAISSTGNTYYADSVKGRFTISRDNAKNTVYLHMISLQPEDTAVYYCAALGYVKLLAQAYEYWGHGTQVTVSS”, the “polyreactivity (PSR sort gate)” value is on record as “high polyreactivity”.

As for “QVQLVESGGGLVQAGGSLRFSCAASGLIFRGYTMGWYRQAPGKEREFVAAITRRGTSTYYADSVKGRFTISRDNAKNTVYLQINRLKPEDTAVYYCAARSVSGPRGYPYDYWGQGTQVTVSS”, the “polyreactivity (PSR sort gate)” value was “high polyreactivity”.

Consider “QVQLVESGVGLVQAGGSVRLSCAASGRTFTRYAMGWYRQAPGKEREWVAAITWSGGSTYYADSVKGRFTISRDNAKNTVYLQMNSLKPEDTAVYYCNAQRYGLFGSEHGYWGQGTQVTVSS”, for which the “polyreactivity (PSR sort gate)” value is listed as “high polyreactivity”.

In the case of “QVQLVESGGGLVQAGGSLRLSSAASGITFDIYDMGWYRQAPGKERELVAAISYSGGSTYYADSVKGRFTISRDNAKNTVYLQMNSLTPEDTAVYDCAAAWYYNSDNEFDYWGQGTQVTVSS”, the “polyreactivity (PSR sort gate)” value is reported as “low polyreactivity”.

Take “QVQLVESGGGLVQAGGSLRLSCAASGFTCGYYAMGWYREAPGKEREFVATISYGTGSTYYADSVKGRFTISRDNAKNTVSFQMNSLKPEDTAVYYCNADTWPGEYNGYFSGAYDYWGQGTQVTVSS”: the “polyreactivity (PSR sort gate)” value is “high polyreactivity”.

As for “QVQLVESGGGLVQAGGSLRLSCAASGSIFVYNAMGRYRQAPGKERELVAAISRSGASTYYADSVKGRFTISRDNAKNTVYLQMNSLKPEDTAVYYCAAEFRQGGYTFGYWGQGTQVTVSS”, the “polyreactivity (PSR sort gate)” value is listed as “high polyreactivity”.

With “QVQLVESGGGLVQAGGSLRLRCAASGRIFVPYVMGWYRQAPGKERELVASISDSDTSTYYADSVKGRFTISRDNAKNTVYLQMNSLKPEDTAVYYCNVDYWGQGTQVTVSS”, the “polyreactivity (PSR sort gate)” value is “low polyreactivity”.

With “QVQLVESGGGLVQAGGSLRLSCAASGSTFEYYAMGWYRQAPGKEREFVAAITLSGGRTYYADSVKGRFTISRDNAKNTVYLQMNSLKPEDTAVYYCNVVVTWWLPSEYDYWGQGTQVTVSS”, the “polyreactivity (PSR sort gate)” value is on record as “high polyreactivity”.

With “QVQLVETGGGLVQAGGSLRLSCAASGLIFYRYAMGWYRQAPGKERELVAVITRSGGNTNYADSVKGRFTISRDNAKNTVYLQMNSLKPEDTAVYYCATRGIWKKVPYYYWGQGTQVTVSS”, the “polyreactivity (PSR sort gate)” value was “high polyreactivity”.

Turning to “QVQLVESGGGLVQAGGRLRLSCAASGLTYTRYTMGWYRPAPGKERELVAAITSSGGSTYYADSVKGRFTISRDNAKNTVFLQMNSLKPEDTAVYFCAARYPGTRGDGYWGQGTQVTVSS”, the “polyreactivity (PSR sort gate)” value is “high polyreactivity”.

As to “QVQLVESGGGLVQAGGSLRLSGAASGFTFFINGMGWYRQAPGKVRELVAAIRSSGASTYYADSVKGRFTISRDNAKNTVYLQMNSLKPEDTAVYYCNARSRVGNSVADYDYCGQGTQVTVSS”, the “polyreactivity (PSR sort gate)” value was “low polyreactivity”.

In the case of “QVQLVESGGGLVQAGGSLRLSCAASGSIFYTNAMGWYRQAPGKERELVATITSSTGSTNYADSVKGRFTISRDNAKNTVYLQMNSLKPEDTAVYYCAKRDCYWVYYQMDYWGQGTQVTVSS”, the “polyreactivity (PSR sort gate)” value was “low polyreactivity”.

For “QVQLVDSGGGLVQAGGSLRLSCAASGFIFRRYAMGWYRQAPGKERDLVAVIRSSGGSTYYADSVKGRFTISRDNAKNTVYLQMNSLKPEDTAVYYCAARSILGYRSYGYWGEGTQVTVSS”, the “polyreactivity (PSR sort gate)” value is recorded as “high polyreactivity”.

For “QVQHVESGGGLVQAGGSLRLSCAASGFTFKRNAMGWYRPAPGKERELVAAITWSGGSTYYADSVKGRFTISRDNAKNTVYLQMNSLKPEDTEVYYCAALYRSRYYSGDYWGQGTQVTVSS”, the “polyreactivity (PSR sort gate)” value is reported as “high polyreactivity”.

For “QVQLGESGGGLVPARGSLRLSRAASGSTFTTNAMGWYRQAPGKEREFVAAITSSGGSTYYADSVKGRFTISRDNAKNTVYLQMNSLNPEDTAVYYCIADGDPSQKLFGRSYDYWGQGTQVTVSS”, the “polyreactivity (PSR sort gate)” value is “low polyreactivity”.

In the case of “QVQLVESGGGLVQAGGSLRLSCAASGITFYVNAMGWYRQAPGKERELVAAINSGSTNYADSVKGRFTISRDNAKNTVYLQMNSLKPEDTAVYYCAVDVYWEFSPEYDYWGQGTQVTVSS”, the “polyreactivity (PSR sort gate)” value is on record as “low polyreactivity”.

With “QVQLVESGGGLVQAGGSLRLSCAASGITVNSYAMGWYRQAPGKERELVAAISGSGSSTYYADSVKGRFTISRDNAKNTVYLQMNSLKPEDTAVYYCAATGFSSWTYYTHEYWGQGTQVTVSS”, the “polyreactivity (PSR sort gate)” value is reported as “low polyreactivity”.

Consider “QVQLVESGGGLVQAGGSLRLSCAASGSTFAVYAMGWYRQAPGKERELVAAITWSGGSTYYADSVKGRFTISRDNAKNTVYFQMNSLKPEDTAVYYCAAAGYYSDMDYWGQGTQVTVSS”, for which the “polyreactivity (PSR sort gate)” value was “low polyreactivity”.

With “QVQLVESGGGLVQAGGSLRLSCSASGSIIVSYTMGWYRQAPGKERELVAAISGGGASTYYADSVKGRFTISRDNAKNTVYLQMNSLKPEDTAVYYCNADGYYDMDYCGQGTQVTVSS”, the “polyreactivity (PSR sort gate)” value is on record as “low polyreactivity”.

With “QVQLVESGGGLVQAGGSLRLSCAASGSTYVSNAMGWYRQAPGKERELVAAISKSGGSTYYGDSVKGRFSISRDTAKNTVYLQMNSLKPEDTAVYYCAASPARYWYGGKEYDYWGQGTQVTVSS”, the “polyreactivity (PSR sort gate)” value is “high polyreactivity”.

As to “QVQLVESGGGLVQAGGSLRLSCAASGFTFGYYAMGWYRQAPGKERELVATISYGGGSTYYADSVKGRFTISRDNAKNTVYLQMNSLKPEDSAVYYCAASYLVQAPVSGYVYRMYYWGQGTQVTVSS”, the “polyreactivity (PSR sort gate)” value is “high polyreactivity”.

For “QVQLVESGGGLVQAGGSLRLSCAASGRIFYYNAMGWYRQAPGKEWELVAAISSSGTTYYADSVKGRFTISRDNAKNTVYLQMNSLKPEDTAVYYCAAGSYWSPYGQSFWPKYDYWGQGTQVTVSS”, the “polyreactivity (PSR sort gate)” value was “high polyreactivity”.

Take “QVQLVESAGGLVQAGGSLRLSCAASGRTFTDYVMGWYRQAPGKESELVAAITSGGGTTYYADSVKGRFTISRDNAKKTVYLQMNSLKPEDTAVYYGNAVSYRRSRYWGYVYWGQGTQVTVSS”: the “polyreactivity (PSR sort gate)” value is listed as “high polyreactivity”.

As for “QVQIVHSGGGLVQAGGSLRLSCAASGRTIGGNAMGWYRQAPGKEWELVAAISYSDGSTYYADSVKGRFTISRDNAKNTVYLQMNSLKPEDTAVYYCAADRYAILLYAEDYWGQGTQVTVSS”, the “polyreactivity (PSR sort gate)” value is reported as “low polyreactivity”.

Turning to “QVQLVESGGGLVQAGGSLRLSCAASGFIFTFYAMGWYRQAPGKEREFVASIDWGDGSTYYADSVKGRFTISRDNAKNTVYLQMNSLKPEDTAVYYCATDVYFLSSEYWGQGTQVTVSS”, the “polyreactivity (PSR sort gate)” value was “low polyreactivity”.

As for “QVQLVESGGGLVQAGGSLRLSCAASGSIFTINTMGWYRQAPGKERELVAAITGSGGITYYADSVKGRFTISRDNAKNTVYLQMNSLKPEDTAVYYCAADTGYVHDGYWGQGTQVTVSS”, the “polyreactivity (PSR sort gate)” value is “low polyreactivity”.

With “QVQLVESGGGLVQAGGSLRLSCAASGSTFYTNAMGWYRPAPGKERELVAAISASVGSTYYADSVKGRFTISRDNAKNTVYLQMNSLKPEDTAVYYCAADVWASRRYDYWGQGTQVTVSS”, the “polyreactivity (PSR sort gate)” value was “low polyreactivity”.

With “QVQLVDSGGGLVQAGGSLRLSCADSGSIFPANVMGWYRQAPGKERELVAAISRGGSTYYADSVKGRFTISRDNAKNTVYLQMNSLKPEDTAVYYCAVAFRGSYRPAYYYWGQGTQVTVSS”, the “polyreactivity (PSR sort gate)” value is given as “high polyreactivity”.

Regarding “QVQLVESGGGLVQAGGSLRLSCAASGSIFYAYAMGWYRQAPGKERELVATISRGVNTNYADSVKGRFTISRDNAKNTVYLQMNSLKPEDTAVYYCNARLRYGHGYGYWGQGTQVTVSS”, the “polyreactivity (PSR sort gate)” value is listed as “low polyreactivity”.

“QVQLVESGGGLLQAGGSLRLSCAASGSIFRRYAMGWYRQATGKERELVAAISRSGSSTYADSVKGRFTISRDNAKNTVYLQMNSLKPEDTAVYYCAASYAFLYYGYDSWGHGTQVTVSS”: the “polyreactivity (PSR sort gate)” value is “low polyreactivity”.

In the case of “QVQLVESGGGIVQAGGSLRLSCAASGRVFTYYAMGWYRQAPGKERELVAAISSGGNTYYADSVKGRFTISRDNAKNTVFLQMNSLKPEDTAVYYCAAAGRPRYESNYWGQGTQVSVSS”, the “polyreactivity (PSR sort gate)” value is given as “high polyreactivity”.

Turning to “QVQLVESGGGLVQAGGSLRLSCAASGFTFWYNAMGWYRQAPGKERELVAAISKSGGSTYYADSVKGRFTISRDNAKNTVYLQMNILKPEDTAVYYCAARLPYNRYNYWGQGTQVTVSS”, the “polyreactivity (PSR sort gate)” value was “high polyreactivity”.

For the sequence “QVQLVESGGGLVQAGGSLRLSCAASGFTFDGYAMGWYRQAPVKERDLVAAISDSGDSTYYADSVKGRFTISRDNAKNTVYVQMNILKPEDTAVYYCNAEQWQSSEYGEWSKRDYWGQGTQVTVSS”, the “polyreactivity (PSR sort gate)” value is on record as “low polyreactivity”.

Take “QVQLVESAGGLVQAGGSLRLICAASGSIFDLYAMGWYRQAPGTERELVAASTWSGGSTYYADSVKGRFTISRDNAKNTVYLQMNSLKPEDTAVYYCAAAYVGTQDLVIDYDYWGQGTQVTVSS”: the “polyreactivity (PSR sort gate)” value is “low polyreactivity”.

As for “QVQLVESGGGLVQAGGSLRLSCAASGITFVSYTMGWYRQAPGTEREFVAAITWNVASTYYADSVKGRFTISRDNAKNTVYLQMNSLKPEDTAVYYCAAGYDWSVITIYDYWGQGTQVTVSS”, the “polyreactivity (PSR sort gate)” value is listed as “high polyreactivity”.

Take “QVQLVDSGGGLVQAGGSLRLSCAASGLTFRRYAMAWYRQAPGKERELVAGISRGGSTYYADSVKGRFTISRDNAKNTVYLQMTSLKPEDTAVYYCAAYNRGTYPVQPVPYDMDYWGQGTQVTVSS”: the “polyreactivity (PSR sort gate)” value is “low polyreactivity”.

Take “QVQLVESGGGLVQAGGSLRLSCAASGSIFASYAMGWYRQAPGKERELVAAIRSSGGRTYYADSVKGRFTISRDNAKNTVYLQMNSLKPEDTAVYYCNARRPGYRPYGYDYWGQGTQVTVSS”: the “polyreactivity (PSR sort gate)” value was “high polyreactivity”.
